Data published in patent publication US20150050211A1 (UNIVERSITY OF SOUTHERN CALIFORNIA, published 2015).

Columns and labels:
Assay in all cases: cell-based or functional assay
[1] = target: Her-2 (Human epithelial growth factor 2) on SKBR-3 cells (human) (UniProt P04626)
[2] = target: T1, Her-2 (Human epithelial growth factor 2) on SKBR-3 cells (human, UniProt P04626 23-1255)
[3] = target: T1, Her-2 (Human epithelial growth factor …); remark: listed apart in the source

Molecule: AHNP (peptide)
- IC50, inhibition of proliferation of Her-2 positive cells (SKBR-3), BrdU incorporation [1]: 67000 nM

B1: Peptide 1 (peptide)
peptide: MAVYVHYHK
modifications: not fully specified; V is N-methyl norvaline (positions 3 and 5); cyclized from the lysine side chain to the N-terminus
- IC50, inhibition of proliferation of Her-2 positive cells (SKBR-3), BrdU incorporation [2]: 520 nM
- fold improvement of EC50 over HRAP, BrdU cell proliferation assay [3]: ~450 fold

B2: Peptide D (peptide)
peptide: MVCVVLYDDK
modifications: not fully specified; N-methyl norvaline at positions 4 and 5 (position 2 is Val, per paragraph 127); cyclized from the lysine side chain to the N-terminus
- IC50, inhibition of proliferation of Her-2 positive cells (SKBR-3), BrdU incorporation [2]: 640 nM
- fold enhancement of EC50 over ANHP, BrdU cell proliferation assay [3]: ~110 fold
